Measurements as given in US20220275100A1 (JIANGSU HENGRUI MEDICINE, published 2022).
Where a chain is given by its changes, count along the chain named. Names may count otherwise.

B1: hu11E (antibody, human IgG1, kappa)
heavy: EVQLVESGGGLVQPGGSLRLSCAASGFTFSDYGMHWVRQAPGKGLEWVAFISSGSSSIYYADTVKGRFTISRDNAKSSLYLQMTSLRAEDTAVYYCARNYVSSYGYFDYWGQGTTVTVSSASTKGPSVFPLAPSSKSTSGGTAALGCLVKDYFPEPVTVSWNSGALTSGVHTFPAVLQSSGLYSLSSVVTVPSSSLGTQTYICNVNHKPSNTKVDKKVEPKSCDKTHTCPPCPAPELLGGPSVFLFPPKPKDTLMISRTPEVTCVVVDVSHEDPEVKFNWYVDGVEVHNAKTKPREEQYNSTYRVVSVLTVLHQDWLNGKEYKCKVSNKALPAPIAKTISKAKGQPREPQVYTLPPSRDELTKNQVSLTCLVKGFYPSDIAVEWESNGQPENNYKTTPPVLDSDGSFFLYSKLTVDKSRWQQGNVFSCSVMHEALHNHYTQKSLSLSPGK
light: DIVMTQSPDSLAVSLGERATINCRASENVDNYGISFMHWYQQKPGQPPKLLIYRASNLESGVPDRFSGSGSGTDFTLTISSLQAEDVAVYYCQQSNKDPLTFGGGTKVEIKRTVAAPSVFIFPPSDEQLKSGTASVVCLLNNFYPREAKVQWKVDNALQSGNSQESVTEQDSKDSTYSLSSTLTLSKADYEKHKVYACEVTHQGLSSPVTKSFNRGEC
notes: Humanized, human IgG1-E333A / kappa; also called h011-01E
B2: hu160E (antibody, human IgG1, kappa)
heavy: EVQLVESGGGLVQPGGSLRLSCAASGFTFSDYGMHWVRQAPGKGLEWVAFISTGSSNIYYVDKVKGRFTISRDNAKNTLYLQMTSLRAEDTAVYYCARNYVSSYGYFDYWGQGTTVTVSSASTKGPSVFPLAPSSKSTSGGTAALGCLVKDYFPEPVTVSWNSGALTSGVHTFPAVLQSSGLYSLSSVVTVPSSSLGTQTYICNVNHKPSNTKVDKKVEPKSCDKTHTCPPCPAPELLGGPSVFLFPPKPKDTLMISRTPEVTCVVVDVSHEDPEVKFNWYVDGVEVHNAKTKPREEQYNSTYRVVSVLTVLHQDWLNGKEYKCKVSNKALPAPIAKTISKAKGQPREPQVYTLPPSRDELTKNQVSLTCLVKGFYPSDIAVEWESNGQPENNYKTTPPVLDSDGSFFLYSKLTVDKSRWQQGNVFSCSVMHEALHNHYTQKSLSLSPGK
light: B1 light with D9A, N28S, S95T
notes: Humanized, human IgG1-E333A / kappa; also called h160-01E
B3: hu9E (antibody, human IgG1, kappa)
heavy: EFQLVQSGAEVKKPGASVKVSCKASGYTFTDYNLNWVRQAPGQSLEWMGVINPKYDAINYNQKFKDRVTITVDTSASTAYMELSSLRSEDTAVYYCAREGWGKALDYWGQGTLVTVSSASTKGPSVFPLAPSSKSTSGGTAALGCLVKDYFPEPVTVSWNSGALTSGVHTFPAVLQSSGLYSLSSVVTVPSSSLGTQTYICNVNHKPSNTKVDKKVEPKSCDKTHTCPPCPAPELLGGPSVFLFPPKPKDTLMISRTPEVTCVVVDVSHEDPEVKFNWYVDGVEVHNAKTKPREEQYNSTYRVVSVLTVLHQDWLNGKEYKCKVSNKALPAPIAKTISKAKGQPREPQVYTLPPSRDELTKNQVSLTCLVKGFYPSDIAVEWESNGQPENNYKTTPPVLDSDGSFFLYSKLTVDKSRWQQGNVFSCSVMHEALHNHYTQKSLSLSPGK
light: EIVLTQSPATLSLSPGERATLSCRASQSIYTNLHWYQQKPGQSPRLLIKYASQSISGIPARFSGSGSGTDFTLTISSLEPEDFAVYYCQQSNSWPLTFGGGTKVEIKRTVAAPSVFIFPPSDEQLKSGTASVVCLLNNFYPREAKVQWKVDNALQSGNSQESVTEQDSKDSTYSLSSTLTLSKADYEKHKVYACEVTHQGLSSPVTKSFNRGEC
notes: Humanized, human IgG1-E333A / kappa; also called h009-07E

target: T1, Fusion protein of CD38 extracellular domain with His tag: CD38-ECD-His (human, UniProt P28907 43-300); test: ELISA, biotin-labeled CD38-ECD-His on streptavidin-coated plate
T1 construct: unlabelled analyte in Biacore; also called human CD38-ECD-His; Human CD38-His
Procedure: The affinity of the anti-CD38 antibodies were determined by the amount of the antibodies binding to CD38 immobilized on the ELISA plate. […] The plate was washed again and tetramethyl benzidine solution was added for color reaction. Finally, stop solution was added. OD450 was measured on a microplate reader and EC50 value was calculated.

EC50 [µg/mL] | Binder
0.0276 | B1
0.028 | B2
0.0259 | B3

target: T2, full-length human CD38 on CHO-S cells (CD38-FL-CHOS) (human, UniProt P28907 1-300); test: flow cytometry on CD38-FL-CHO-S cells
T2 construct: whole, on cells; also called natural CD38 present on the cell surface

EC50 [µg/mL] | Binder
0.481 | B1
0.474 | B2
0.402 | B3

target: T1, Fusion protein of CD38 extracellular …; test: SPR (Biacore), antibody captured as ligand, Human CD38-His as analyte
Procedure: Then the human CD38-ECD-His antigen passed through the surface of the chip, and a real-time detection for the reaction signal was performed with Biacore instrument. The resulting binding and dissociation curves were fitted to calculate the affinity values. After the dissociation of each cycle was completed in the experiment, the biochip was washed and regenerated with the regeneration solution supplied in the Human Fc Capture Kit (GE).

Kd [nM] | koff [s⁻¹] | kon [M⁻¹ s⁻¹] | Binder
0.568 | 0.00117 | 2.07e+06 | B1
0.0585 | 0.000115 | 1.96e+06 | B2
1.31 | 0.00138 | 1.05e+06 | B3

target: T1, Fusion protein of CD38 extracellular …; test: cell-based or functional assay

IC50 (µg/ml), inhibition of CD38 enzyme activity (cGDPR production from NGD) [µg/mL] | Imax (Maximum inhibition rate %) [%] | Binder
1.83 | 44.3 | B1
1.2 | 47.7 | B2
1.56 | 89.6 | B3
